# Laboratory results reported in patent publication US20230365714A1 (published 2023).
# Biological target: T1, his-tagged ROR2 extracellular domain (ROR2-ECD, G&P Biosciences, cat. no. FCL0192) (human, UniProt Q01974 34-403)
# T1 construct: Bought protein; also called human ROR2-ECD; recombinant human ROR2-ECD; not shown: his tag
# Assay: BLI (Octet), antibody on anti-human IgG Fc sensor, ROR2-ECD 1.56-100 nM as analyte
# T1 sequence (Q01974 34-403): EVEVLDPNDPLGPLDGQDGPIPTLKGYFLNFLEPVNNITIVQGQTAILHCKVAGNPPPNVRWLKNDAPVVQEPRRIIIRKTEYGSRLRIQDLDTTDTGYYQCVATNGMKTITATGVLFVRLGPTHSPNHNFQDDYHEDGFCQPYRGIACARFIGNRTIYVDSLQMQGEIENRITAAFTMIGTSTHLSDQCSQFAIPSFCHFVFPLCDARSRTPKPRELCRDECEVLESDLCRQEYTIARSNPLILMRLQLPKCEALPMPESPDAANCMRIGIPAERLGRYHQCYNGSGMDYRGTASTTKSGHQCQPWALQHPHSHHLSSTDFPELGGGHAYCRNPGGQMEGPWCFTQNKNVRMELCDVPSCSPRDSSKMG
Binder,Kd,koff,kon
"IgG1-ROR2-A-HC1LC2-FEAR (antibody, V domains shown, Humanized variant) VH: QSVLESGGGLVQPGGSLRLSCTVSGFSLSSYSMSWVRQAPGKGLEWIGVIYVNSKTWYANWAKGRFTISKTSTTVDLKITSPTAEDTATYFCARGDAGYTTNSWLWGQGTLVTVSS VL: AFELTQSPSSLSASVGDRVTITCQASESIDNYLSWYQQKPGKAPKLLIYQAFKLASGVPSRFRGSGSGTDFTLTISSLQSEDFATYYCQSYSGISTTAFGGGTEVVIK",1.9 nM,0.0011 s⁻¹,590000 M⁻¹ s⁻¹
"IgG1-ROR2-A-HC7LC3-FEAR (antibody, Humanized variant) heavy: EVQLLESGGGLVQPGGSLRLSCAASGFSLSSYSMSWVRQAPGKGLEWIGVIYVNSKTWYADSVKGRFTISKDNSKNTVYLQMNSLRAEDTATYYCARGDAGYTTNSWLWGQGTLVTVSSASTKGPSVFPLAPSSKSTSGGTAALGCLVKDYFPEPVTVSWNSGALTSGVHTFPAVLQSSGLYSLSSVVTVPSSSLGTQTYICNVNHKPSNTKVDKRVEPKSCDKTHTCPPCPAPEFEGGPSVFLFPPKPKDTLMISRTPEVTCVVVAVSHEDPEVKFNWYVDGVEVHNAKTKPREEQYNSTYRVVSVLTVLHQDWLNGKEYKCKVSNKALPAPIEKTISKAKGQPREPQVYTLPPSREEMTKNQVSLTCLVKGFYPSDIAVEWESNGQPENNYKTTPPVLDSDGSFFLYSRLTVDKSRWQQGNVFSCSVMHEALHNHYTQKSLSLSPGK VL: AFELTQSPSSLSASVGDRVTITCQASESIDNYLSWYQQKPGKAPKLLIYQAFKLASGVPSRFRGSGSGTDFTLTISSLQPEDFATYYCQSYSGISTTAFGGGTKVEIK",5.1 nM,0.0028 s⁻¹,550000 M⁻¹ s⁻¹
"IgG1-ROR2-A-HC6LC4-FEAR (antibody, Humanized variant) heavy: EVQLLESGGGLVQPGGSLRLSCTVSGFSLSSYSMSWVRQAPGKGLEWIGVIYVNSKTWYADSVKGRFTISKDNSKNTVYLQMNSLRAEDTATYYCARGDAGYTTNSWLWGQGTLVTVSSASTKGPSVFPLAPSSKSTSGGTAALGCLVKDYFPEPVTVSWNSGALTSGVHTFPAVLQSSGLYSLSSVVTVPSSSLGTQTYICNVNHKPSNTKVDKRVEPKSCDKTHTCPPCPAPEFEGGPSVFLFPPKPKDTLMISRTPEVTCVVVAVSHEDPEVKFNWYVDGVEVHNAKTKPREEQYNSTYRVVSVLTVLHQDWLNGKEYKCKVSNKALPAPIEKTISKAKGQPREPQVYTLPPSREEMTKNQVSLTCLVKGFYPSDIAVEWESNGQPENNYKTTPPVLDSDGSFFLYSRLTVDKSRWQQGNVFSCSVMHEALHNHYTQKSLSLSPGK VL: DIQLTQSPSSLSASVGDRVTITCQASESIDNYLSWYQQKPGKAPKLLIYQAFKLASGVPSRFRGSGSGTDFTLTISSLQPEDFATYYCQSYSGISTTAFGGGTKVEIK",4.4 nM,0.0025 s⁻¹,570000 M⁻¹ s⁻¹
"IgG1-ROR2-A-HC7LC4-FEAR (antibody, Humanized variant) heavy: EVQLLESGGGLVQPGGSLRLSCAASGFSLSSYSMSWVRQAPGKGLEWIGVIYVNSKTWYADSVKGRFTISKDNSKNTVYLQMNSLRAEDTATYYCARGDAGYTTNSWLWGQGTLVTVSSASTKGPSVFPLAPSSKSTSGGTAALGCLVKDYFPEPVTVSWNSGALTSGVHTFPAVLQSSGLYSLSSVVTVPSSSLGTQTYICNVNHKPSNTKVDKRVEPKSCDKTHTCPPCPAPEFEGGPSVFLFPPKPKDTLMISRTPEVTCVVVAVSHEDPEVKFNWYVDGVEVHNAKTKPREEQYNSTYRVVSVLTVLHQDWLNGKEYKCKVSNKALPAPIEKTISKAKGQPREPQVYTLPPSREEMTKNQVSLTCLVKGFYPSDIAVEWESNGQPENNYKTTPPVLDSDGSFFLYSRLTVDKSRWQQGNVFSCSVMHEALHNHYTQKSLSLSPGK VL: DIQLTQSPSSLSASVGDRVTITCQASESIDNYLSWYQQKPGKAPKLLIYQAFKLASGVPSRFRGSGSGTDFTLTISSLQPEDFATYYCQSYSGISTTAFGGGTKVEIK",5.6 nM,0.0032 s⁻¹,570000 M⁻¹ s⁻¹

# Continued by falling Kd, values first:
Kd,koff,kon,Binder
4 nM,0.0023 s⁻¹,560000 M⁻¹ s⁻¹,"IgG1-ROR2-A-HC6LC3-FEAR (antibody, Humanized variant) heavy: EVQLLESGGGLVQPGGSLRLSCTVSGFSLSSYSMSWVRQAPGKGLEWIGVIYVNSKTWYADSVKGRFTISKDNSKNTVYLQMNSLRAEDTATYYCARGDAGYTTNSWLWGQGTLVTVSSASTKGPSVFPLAPSSKSTSGGTAALGCLVKDYFPEPVTVSWNSGALTSGVHTFPAVLQSSGLYSLSSVVTVPSSSLGTQTYICNVNHKPSNTKVDKRVEPKSCDKTHTCPPCPAPEFEGGPSVFLFPPKPKDTLMISRTPEVTCVVVAVSHEDPEVKFNWYVDGVEVHNAKTKPREEQYNSTYRVVSVLTVLHQDWLNGKEYKCKVSNKALPAPIEKTISKAKGQPREPQVYTLPPSREEMTKNQVSLTCLVKGFYPSDIAVEWESNGQPENNYKTTPPVLDSDGSFFLYSRLTVDKSRWQQGNVFSCSVMHEALHNHYTQKSLSLSPGK VL: AFELTQSPSSLSASVGDRVTITCQASESIDNYLSWYQQKPGKAPKLLIYQAFKLASGVPSRFRGSGSGTDFTLTISSLQPEDFATYYCQSYSGISTTAFGGGTKVEIK"
3.8 nM,0.0021 s⁻¹,540000 M⁻¹ s⁻¹,"IgG1-ROR2-A-HC7LC1-FEAR (antibody, V domains shown, Humanized variant) VH: EVQLLESGGGLVQPGGSLRLSCAASGFSLSSYSMSWVRQAPGKGLEWIGVIYVNSKTWYADSVKGRFTISKDNSKNTVYLQMNSLRAEDTATYYCARGDAGYTTNSWLWGQGTLVTVSS VL: AFELTQSPSSLSASVGDRVTITCQASESIDNYCSWYQQKPGKAPKLLIYQAFKLASGVPSRFRGSGSGTDFTLTISSLQSEDFATYYCQSYSGISTTAFGGGTEVVIK"
1.8 nM,0.00097 s⁻¹,550000 M⁻¹ s⁻¹,"IgG1-ROR2-A-HC1LC3-FEAR (antibody, Humanized variant) heavy: QSVLESGGGLVQPGGSLRLSCTVSGFSLSSYSMSWVRQAPGKGLEWIGVIYVNSKTWYANWAKGRFTISKTSTTVDLKITSPTAEDTATYFCARGDAGYTTNSWLWGQGTLVTVSSASTKGPSVFPLAPSSKSTSGGTAALGCLVKDYFPEPVTVSWNSGALTSGVHTFPAVLQSSGLYSLSSVVTVPSSSLGTQTYICNVNHKPSNTKVDKRVEPKSCDKTHTCPPCPAPEFEGGPSVFLFPPKPKDTLMISRTPEVTCVVVAVSHEDPEVKFNWYVDGVEVHNAKTKPREEQYNSTYRVVSVLTVLHQDWLNGKEYKCKVSNKALPAPIEKTISKAKGQPREPQVYTLPPSREEMTKNQVSLTCLVKGFYPSDIAVEWESNGQPENNYKTTPPVLDSDGSFFLYSRLTVDKSRWQQGNVFSCSVMHEALHNHYTQKSLSLSPGK VL: AFELTQSPSSLSASVGDRVTITCQASESIDNYLSWYQQKPGKAPKLLIYQAFKLASGVPSRFRGSGSGTDFTLTISSLQPEDFATYYCQSYSGISTTAFGGGTKVEIK"
1.6 nM,0.00096 s⁻¹,590000 M⁻¹ s⁻¹,"IgG1-ROR2-A-HC1LC1-FEAR (antibody, V domains shown, Humanized variant) VH: QSVLESGGGLVQPGGSLRLSCTVSGFSLSSYSMSWVRQAPGKGLEWIGVIYVNSKTWYANWAKGRFTISKTSTTVDLKITSPTAEDTATYFCARGDAGYTTNSWLWGQGTLVTVSS VL: AFELTQSPSSLSASVGDRVTITCQASESIDNYCSWYQQKPGKAPKLLIYQAFKLASGVPSRFRGSGSGTDFTLTISSLQSEDFATYYCQSYSGISTTAFGGGTEVVIK"
